From patent US20200157223A1 (SHANGHAI JMT BIO TECHNOLOGY, published 2020)
Values belong to the binder of their own block, whether it stands above or below them.

Key:
[1] = molecular target: T1, CD47-His (12283-H08H-200, Sino Biological) (human, UniProt Q08722 19-139); assay: ELISA on coated CD47-His
T1 construct: Bought protein coated on ELISA plates; also called CD47 antigen; human CD47 (protein level); not shown: His tag

[2] = molecular target: T2, CD47 on the cell surface (A431, Raji, SKBR-3, NCI-H441, NK92MI-CD16a cells) (human, UniProt Q08722 19-323); assay: flow cytometry on Raji cells
T2 construct: whole, on cells; also called CD47 antigen; human CD47 (cellular level)

[3] = molecular target: T2, CD47 on the cell surface (A431, Raji, …); assay: flow cytometry on A431 cells
[4] = molecular target: T2, CD47 on the cell surface (A431, Raji, …); assay: flow cytometry on SKBR-3 cells
[5] = molecular target: T2, CD47 on the cell surface (A431, Raji, …); assay: flow cytometry on NCI-H441 cells
[6] = molecular target: T2, CD47 on the cell surface (A431, Raji, …); assay: flow cytometry on IFN-γ-stimulated NCI-H441 cells
[7] = molecular target: T2, CD47 on the cell surface (A431, Raji, …); assay: flow cytometry on A431 cells (no CD20)
[8] = molecular target: T2, CD47 on the cell surface (A431, Raji, …); assay: cell-based or functional assay

B3: Obi-Fc1-D1-Fc2 (bispecific antibody)
heavy: not shown
light: DIVMTQTPLSLPVTPGEPASISCRSSKSLLHSNGITYLYWYLQKPGQSPQLLIYQMSNLVSGVPDRFSGSGSGTDFTLKISRVEAEDVGVYYCAQNLELPYTFGGGTKVEIKRTVAAPSVFIFPPSDEQLKSGTASVVCLLNNFYPREAKVQWKVDNALQSGNSQESVTEQDSKDSTYSLSSTLTLSKADYEKHKVYACEVTHQGLSSPVTKSFNRGEC
chain: not shown
toxic side effects caused by NK cells (ADCC on NK92MI-CD16a cells), reduction against the D1^m proteins [8]: ≥ 1000 fold

B4: Obi-Fc1-D1-D2-D3-Fc2 (bispecific antibody)
heavy: not shown
light: DIVMTQTPLSLPVTPGEPASISCRSSKSLLHSNGITYLYWYLQKPGQSPQLLIYQMSNLVSGVPDRFSGSGSGTDFTLKISRVEAEDVGVYYCAQNLELPYTFGGGTKVEIKRTVAAPSVFIFPPSDEQLKSGTASVVCLLNNFYPREAKVQWKVDNALQSGNSQESVTEQDSKDSTYSLSSTLTLSKADYEKHKVYACEVTHQGLSSPVTKSFNRGEC
chain: not shown
toxic side effects caused by NK cells (ADCC on NK92MI-CD16a cells), reduction against the D1^m proteins [8]: ≥ 1000 fold

B5: Obi-Fc1-D1-D2-Fc2 (bispecific antibody)
heavy: not shown
light: DIVMTQTPLSLPVTPGEPASISCRSSKSLLHSNGITYLYWYLQKPGQSPQLLIYQMSNLVSGVPDRFSGSGSGTDFTLKISRVEAEDVGVYYCAQNLELPYTFGGGTKVEIKRTVAAPSVFIFPPSDEQLKSGTASVVCLLNNFYPREAKVQWKVDNALQSGNSQESVTEQDSKDSTYSLSSTLTLSKADYEKHKVYACEVTHQGLSSPVTKSFNRGEC
chain: not shown
toxic side effects caused by NK cells (ADCC on NK92MI-CD16a cells), reduction against the D1^m proteins [8]: ≥ 1000 fold

B9: Anti-EGFR-Fc1-D1-D2-Fc2 (bispecific antibody, human IgG1, kappa)
heavy: not shown
light: EIVLTQSPDFQSVTPKEKVTITCRASQSIGTNIHWYQQKPDQSPKLLIKYASESISGIPSRFSGSGSGTDFTLTINSLEAEDAATYYCQQNNEWPTSFGQGTKLEIKRTVAAPSVFIFPPSDEQLKSGTASVVCLLNNFYPREAKVQWKVDNALQSGNSQESVTEQDSKDSTYSLSSTLTLSKADYEKHKVYACEVTHQGLSSPVTKSFNRGEC
chain: not shown
toxic side effects caused by NK cells (ADCC on NK92MI-CD16a cells), reduction against the D1^m proteins [8]: ≥ 1000 fold

B11: Anti-EGFR-Fc1-D1-D2-D3-Fc2 (bispecific antibody, human IgG1, kappa)
heavy: not shown
light: EIVLTQSPDFQSVTPKEKVTITCRASQSIGTNIHWYQQKPDQSPKLLIKYASESISGIPSRFSGSGSGTDFTLTINSLEAEDAATYYCQQNNEWPTSFGQGTKLEIKRTVAAPSVFIFPPSDEQLKSGTASVVCLLNNFYPREAKVQWKVDNALQSGNSQESVTEQDSKDSTYSLSSTLTLSKADYEKHKVYACEVTHQGLSSPVTKSFNRGEC
chain: not shown
toxic side effects caused by NK cells (ADCC on NK92MI-CD16a cells), reduction against the D1^m proteins [8]: ≥ 1000 fold

Further lines, with some results ahead:

EC50 [1]: 0.00544 µg/mL
EC50 [2]: 0.258 nM
EC50 [3]: 0.865 nM
EC50 [4]: 0.456 nM
EC50 [5]: 0.286 nM
Maximum average fluorescence intensity [5]: 120000
EC50 [6]: 0.387 nM
B1: Anti-CD47 mAb (Hu5F9-G4) (antibody, human IgG4 S228P, kappa)
heavy: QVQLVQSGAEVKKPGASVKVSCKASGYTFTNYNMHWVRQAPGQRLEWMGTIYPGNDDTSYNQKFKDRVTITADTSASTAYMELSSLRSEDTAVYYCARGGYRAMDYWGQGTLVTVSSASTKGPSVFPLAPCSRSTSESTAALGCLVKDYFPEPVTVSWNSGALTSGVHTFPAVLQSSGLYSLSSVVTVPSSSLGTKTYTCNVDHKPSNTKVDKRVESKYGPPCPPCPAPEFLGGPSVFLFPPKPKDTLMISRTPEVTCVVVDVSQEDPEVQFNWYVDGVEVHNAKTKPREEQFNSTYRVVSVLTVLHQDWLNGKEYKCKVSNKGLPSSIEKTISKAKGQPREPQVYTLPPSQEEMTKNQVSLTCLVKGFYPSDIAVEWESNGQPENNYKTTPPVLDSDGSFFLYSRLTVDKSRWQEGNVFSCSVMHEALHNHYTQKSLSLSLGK
light: DIVMTQSPLSLPVTPGEPASISCRSSQSIVYSNGNTYLGWYLQKPGQSPQLLIYKVSNRFSGVPDRFSGSGSGTDFTLKISRVEAEDVGVYYCFQGSHVPYTFGQGTKLEIKRTVAAPSVFIFPPSDEQLKSGTASVVCLLNNFYPREAKVQWKVDNALQSGNSQESVTEQDSKDSTYSLSSTLTLSKADYEKHKVYACEVTHQGLSSPVTKSFNRGEC
notes: also called anti-CD47 antibody; Hu5F9-64

binding result [1]: no binding
Maximum average fluorescence intensity [5]: 3500
binding result [7]: no binding
B2: Anti-CD20 mAb (Ofatumumab) (antibody, human IgG1, kappa)
heavy: not shown
light: not shown
notes: also called Anti-CD20 (Ofatumumab)

binding result [7]: no binding
B6: Anti-CD20 mAb (Obinutuzumab) (antibody, human IgG1, kappa)
heavy: not shown
light: DIVMTQTPLSLPVTPGEPASISCRSSKSLLHSNGITYLYWYLQKPGQSPQLLIYQMSNLVSGVPDRFSGSGSGTDFTLKISRVEAEDVGVYYCAQNLELPYTFGGGTKVEIKRTVAAPSVFIFPPSDEQLKSGTASVVCLLNNFYPREAKVQWKVDNALQSGNSQESVTEQDSKDSTYSLSSTLTLSKADYEKHKVYACEVTHQGLSSPVTKSFNRGEC
notes: also called Anti-CD20 (Obinutuzumab)

EC50 [1]: 0.0939 µg/mL
B7: Anti-EGFR-Fc1-D1-Fc2 (bispecific antibody, human IgG1, kappa)
heavy: not shown
light: EIVLTQSPDFQSVTPKEKVTITCRASQSIGTNIHWYQQKPDQSPKLLIKYASESISGIPSRFSGSGSGTDFTLTINSLEAEDAATYYCQQNNEWPTSFGQGTKLEIKRTVAAPSVFIFPPSDEQLKSGTASVVCLLNNFYPREAKVQWKVDNALQSGNSQESVTEQDSKDSTYSLSSTLTLSKADYEKHKVYACEVTHQGLSSPVTKSFNRGEC
chain: not shown
notes: Knobs-into-holes heterodimer; left arm is the JMT101 half antibody; also called Anti-EGFR-Fc1-D1-Fe2
toxic side effects caused by NK cells (ADCC on NK92MI-CD16a cells), reduction against the D1^m proteins [8]: ≥ 1000 fold

binding result [1]: binds
B8: Anti-EGFR-Fc1-D1^m-Fc2 (bispecific antibody, human IgG1, kappa)
heavy: not shown
light: EIVLTQSPDFQSVTPKEKVTITCRASQSIGTNIHWYQQKPDQSPKLLIKYASESISGIPSRFSGSGSGTDFTLTINSLEAEDAATYYCQQNNEWPTSFGQGTKLEIKRTVAAPSVFIFPPSDEQLKSGTASVVCLLNNFYPREAKVQWKVDNALQSGNSQESVTEQDSKDSTYSLSSTLTLSKADYEKHKVYACEVTHQGLSSPVTKSFNRGEC
chain: not shown
notes: Knobs-into-holes heterodimer

binding result [1]: binds
B10: Anti-EGFR-Fc1-D1^m-D2-Fc2 (bispecific antibody, human IgG1, kappa)
heavy: not shown
light: EIVLTQSPDFQSVTPKEKVTITCRASQSIGTNIHWYQQKPDQSPKLLIKYASESISGIPSRFSGSGSGTDFTLTINSLEAEDAATYYCQQNNEWPTSFGQGTKLEIKRTVAAPSVFIFPPSDEQLKSGTASVVCLLNNFYPREAKVQWKVDNALQSGNSQESVTEQDSKDSTYSLSSTLTLSKADYEKHKVYACEVTHQGLSSPVTKSFNRGEC
chain: not shown
notes: Knobs-into-holes heterodimer

binding result [1]: no binding
B12: Anti-EGFR mAb (JMT101) (antibody, human IgG1, kappa, V domains shown)
VH: QVQLQESGPGLVKPSETLSLTCTVSGFSLSNYDVHWVRQAPGKGLEWLGVIWSGGNTDYNTPFTSRLTISVDTSKNQFSLKLSSVTAADTAVYYCARALDYYDYEFAYWGQGTLVTVSS
VL: EIVLTQSPDFQSVTPKEKVTITCRASQSIGTNIHWYQQKPDQSPKLLIKYASESISGIPSRFSGSGSGTDFTLTINSLEAEDAATYYCQQNNEWPTSFGQGTKLEIKR
notes: Humanized anti-EGFR monoclonal antibody
